Source: patent publication US11708423B2, “Chimeric engulfment receptor molecules and methods of use” (CERO THERAPEUTICS, INC., priority 2017, dated 2023)
“Also recorded” adds a separate entry of the source.

Key:
[1] = system: A549 cells introduced with an ELM4-ALK translocation; test: Interferon Gamma secretion, A549 ALK+ co-culture; format: cell-based; conditions: Crizotinib (3700 nM) or Alectinib (3700 nM), 18 hours, E:T 2:1 and 5:1
Procedure: After 18 hours of co-culture, bulk supernatants were evaluated for Interferon Gamma secretion (FIGS. 66A-B). Assays were performed using purified, tEGFR^+ (transduction marker), CER-expressing T cells 7 days after activation using CD3 & CD28 microbeads at effector: target ratios of (2:1 & 5:1). Control “Mock” T cells were transduced with vector alone.

[2] = system: HCC159 lung adenocarcinoma cells; test: MTT viability of HCC159 cells co-cultured with CER T cells and Osimeritinib; format: cell-based; conditions: Osimeritinib 0.1, 1, 5 nM; E:T 1:1, 2:1, 5:1; 48 hours
Procedure: HCC159 lung adenocarcinoma cells harboring an EGFR mutation were co-cultured with CER123- or CER126-expressing CD4+ T cells with increasing concentrations of Osimeritinib (0.1 nM, 1 nM, or 5 nM). Mock transduced (vector only) T cells were used as control. After 48 hours of co-culture at effector: target cell ratios at 1:1, 2:1 or 5:1 in the presence of drug, T cells were washed away, and the number of viable HCC159 cells was quantified using a calorimetric MTT assay. Cell viability experiments were performed in triplicates and presented as % of control with (FIG. 48A).

H1975 NSCLC cells = test: LDH-based cytotoxicity, H1975 cells, 18 hours co-culture; format: cell-based; conditions: Osimeritinib 0, 500, 1000 nM, E:T 2:1 or 5:1
Procedure: H1975 NSCLC cells were co-cultured with CER123- or CER126-expressing CD4+ T cells with increasing concentrations of Osimeritnib (0, 500 nM, or 1000 nM). Mock-transduced (vector only) T cells were used as control. Assays were performed using CER modified T cells purified by FACS using an EGFR specific antibody 7 days after activation using CD3 & CD28 microbeads. CER modified T cells and H1975 cells were co-cultured at effector:target cell ratios of 2:1 or 5:1. After 18 hours of co-culture, bulk supernatants were evaluated using LDH-based cytotoxicity assay.

SCC152 cells = test: Magnitude breadth of phagocytosis by CER-transduced CD4+ T cells; format: cell-based, human; conditions: CD4+ T cells
Procedure: Various CER-modified CD4+ T cells were also evaluated for breadth of response to determine whether a particular CER confers a broad phagocytic response of low magnitude (e.g., 10% engulfment in 90% of cells) or a less frequent but strong phagocytic response (e.g., 90% engulfment in 10% of cells) in the host cells. CD8+ T cells were transduced with HPV16 E7 specific TCR as described in Example 5. CD4+ T cells were transduced with lentiviral vectors comprising a CER21, CER27, CER104, CER116, or CER117 nucleic acid. Mock-transduced (vector alone) CD4+ T cell were used as control. CD4+/CER+ and CD8+/E7 TCR+ T cells were stained with CELLTRACE violet. […] HPV16 E7 TCR transduced CD8+ T cells and selected CER transduced CD4+ T cells were mixed at a 1:1 ratio and co-cultured with SCC152 cells at a 1:1 ratio for 8 hours. Phagocytosis of target SCC152 cells by CER-transduced CD4+ T cells was analyzed by fluorescence microscopy. […] The horizontal axis represents the % area of CER-transduced CD4+ T cells having engulfment or % area of […]. This measure was rarely above 40% across CER types tested. The vertical axis represents the proportion of CER-transduced CD4+ T cells that were phagocytic. For CER104, about 20% of CER104-transduced CD4+ T cells have more than 10% engulfment. For CER117-transduced CD4+ T cells, less than 10% have more than 10% engulfment.

ALK+A549 cells = test: LDH cytotoxicity assay, A549 ALK+ cells, 18 hours co-culture; format: cell-based
Procedure: An ELM4-ALK translocation was introduced into A549 cells. […] Assays were performed with purified tEGFR^+ (transduction marker), CER-expressing T cells 7 days after activation using CD3 & CD28 microbeads at effector: target cell ratios of 2:1 or 5:1. Mock T cells were transduced with vector alone and used as control. After 18 hours of co-culture, bulk supernatants were evaluated using a LDH cytoxicity assay indicating cell killing (FIGS. 65A-B).

[3] = system: H1975 lung adenocarcinoma cells; test: MTT viability of H1975 cells co-cultured with CER T cells and Osimeritinib; format: cell-based
Excerpt: H1975 lung adenocarcinoma cells harboring an EGFR mutation were co-cultured with CER123- or CER126-modified or Mock-transduced (vector only) CD4+ T cells with increasing concentrations of Osimeritinib. CER123 has a polypeptide sequence as set forth in SEQ ID NO:150 and comprises a Tim4 binding domain, Tim4 transmembrane domain, and an engulfment signaling domain comprising a primary engulfment signaling domain comprising a TLR2 signaling domain and a secondary engulfment signaling domain comprising a TRAF6 signaling domain. CER126 has a polypeptide sequence as set forth in SEQ ID NO:174 and comprises a Tim4 binding domain, Tim4 transmembrane domain, and an engulfment signaling domain comprising a primary engulfment signaling domain comprising a TLR2 signaling domain and a secondary engulfment signaling domain comprising a TRAF2 signaling domain. CD4 T cells were transduced with a lentiviral vector comprising CER123 or CER126 nucleic acid and truncated EGFR (transduction marker) nucleic acid. Assays were performed using CER modified T cells purified by FACS using an EGFR specific antibody 7 days after activation using CD3 & CD28 microbeads. CER modified T cells and H1975 cells were co-cultured at effector:target cell ratio (E:T) of 1:1, 2:1, or 5:1. After 48 hours of co-culture in the presence of Osimeritinib (0, 250 nM, 500 nM, or 1000 nM), T cells were washed away, and the number of viable H1975 cells were quantified using a calorimetric MTT assay. Cell viability experiments were performed in triplicate and presented as % of control (FIG. 45A).

B1: CER126: Tim4 binding and transmembrane domains, TLR2 primary and TRAF2 secondary signaling domains; SEQ ID NO:174 (protein)
chain: MSKGLLLLWLVTELWWLYLTPAASEDTIIGFLGQPVTLPCHYLSWSQSRNSMCWGKGSCPNSKCNAELLRTDGTRIISRKSTKYTLLGKVQFGEVSLTISNTNRGDSGVYCCRIEVPGWFNDVKKNVRLELRRATTTKKPTTTTRPTTTPYVTTTTPELLPTTVMTTSVLPTTTPPQTLATTAFSTAVTTCPSTTPGSFSQETTKGSAFTTESETLPASNHSQRSMMTISTDIAVLRPTGSNPGILPSTSQLTTQKTTLTTSESLQKTTKSHQINSRQTILIIACCVGFVLMVLLFLAFLHRFHGLWYMKMMWAWLQAKRKPRKAPSRNICYDAFVSYSERDAYWVENLMVQELENFNPPFKLCLHKRDFIPGKWIIDNIIDSIEKSHKTVFVLSENFVKSEWCKYELDFSHFRLFDENNDAAILILLEPIEKKAIPQRFCKLRKIMNTKTYLEWPMDEAQREGFWVNLRAAIKSMAAASVTPPGSLELLQPGFSKTLLGTKLEAKYLCSACRNVLRRPFQAQCGHRYCSFCLASILSSGPQNCAACVHEGIYEEGISILESSSAFPDNAARREVESLPAVCPSDGCTWKGTLKEYESCHEGRCPLMLTECPACKGLVRLGEKERHLEHECPERSLSCRHCRAPCCGADVKAHHEVCPKFPLTCDGCGKKKIPREKFQDHVKTCGKCRVPCRFHAIGCLETVEGEKQQEHEVQWLREHLAMLLSSVLEAKPLLGDQSHAGSELLQRCESLEKKTATFENIVCVLNREVERVAMTAEAC
modifications: CER126 protein
Interferon Gamma secretion [1]: dose-dependent inducible cytokine secretion
growth/viability of HCC159 cells (MTT) [2]: dose-dependent target cell killing responses; also recorded: synergistically suppressed
cell killing of H1975 cells (LDH) (H1975 NSCLC cells): inducible cell killing responses
engulfment of SCC152 target cells (fluorescent micrograph) (SCC152 cells): SCC152 target cells engulfed
micrograph images of A549 co-culture (ALK+A549 cells; Crizotinib 3700 nM): near complete loss of Crizotinib-treated A549 cells
cell killing of A549 ALK+ cells (LDH) (ALK+A549 cells; Crizotinib or Alectinib 0, 2500, 3700 nM, E:T 2:1 or 5:1, 18 hours): dose-dependent inducible cytokine secretion and cell killing responses
bright field images of H1975 co-culture ([3]; Osimeritinib 500 nM, vs control T cells (vector alone)): loss of H1975 cells
growth/viability of H1975 cells (MTT) ([3]; Osimeritinib 250, 500, 1000 nM, CD4+ T cells, E:T 1:1, 2:1, 5:1, 48 hours): synergistically suppressed
